# Results reported in article PMC10328077.
# pKd: −log10 of the molar value.
# Legend:
# [1] = target: NT647-labeled apoE2(1–165) fragment (human); assay: MST; labelled apoE2(1-165) at 2.8 nM held constant, FH402H, FH402Y, FH1-4 or FH19-20 titrated; n = 3; Kd fit model of normalized (ΔFnorm) values; 150 mM KCl, 25 mM HEPES pH 7.5, 0.01% Tween 20, 0.01% NaN3
# [2] = target: NT647-FH5-7 402Y (human) (UniProt P08603); assay: MST; NT647-FH5-7 402Y at 35 nM held constant, apoE2, apoE3 or apoE4 titrated; n = 3; Kd fit model of normalized (ΔFnorm) values; 150 mM KCl, 25 mM HEPES pH 7.5, 0.01% Tween 20, 0.01% NaN3
# [3] = target: complement factor H (FH), NT647-labeled full-length FH (human) (UniProt P08603); assay: MST; FH at 2 nM held constant (NT647-labelled by the legend of Fig 1I), native apoE2 or native apoE4 titrated; n = 3; Kd fit model of normalized (ΔFnorm) values; 150 mM KCl, 25 mM HEPES pH 7.5, 0.01% Tween 20, 0.01% NaN3
# Chain of complement factor H (FH), NT647-labeled full-length FH (human) (P08603 19-1231): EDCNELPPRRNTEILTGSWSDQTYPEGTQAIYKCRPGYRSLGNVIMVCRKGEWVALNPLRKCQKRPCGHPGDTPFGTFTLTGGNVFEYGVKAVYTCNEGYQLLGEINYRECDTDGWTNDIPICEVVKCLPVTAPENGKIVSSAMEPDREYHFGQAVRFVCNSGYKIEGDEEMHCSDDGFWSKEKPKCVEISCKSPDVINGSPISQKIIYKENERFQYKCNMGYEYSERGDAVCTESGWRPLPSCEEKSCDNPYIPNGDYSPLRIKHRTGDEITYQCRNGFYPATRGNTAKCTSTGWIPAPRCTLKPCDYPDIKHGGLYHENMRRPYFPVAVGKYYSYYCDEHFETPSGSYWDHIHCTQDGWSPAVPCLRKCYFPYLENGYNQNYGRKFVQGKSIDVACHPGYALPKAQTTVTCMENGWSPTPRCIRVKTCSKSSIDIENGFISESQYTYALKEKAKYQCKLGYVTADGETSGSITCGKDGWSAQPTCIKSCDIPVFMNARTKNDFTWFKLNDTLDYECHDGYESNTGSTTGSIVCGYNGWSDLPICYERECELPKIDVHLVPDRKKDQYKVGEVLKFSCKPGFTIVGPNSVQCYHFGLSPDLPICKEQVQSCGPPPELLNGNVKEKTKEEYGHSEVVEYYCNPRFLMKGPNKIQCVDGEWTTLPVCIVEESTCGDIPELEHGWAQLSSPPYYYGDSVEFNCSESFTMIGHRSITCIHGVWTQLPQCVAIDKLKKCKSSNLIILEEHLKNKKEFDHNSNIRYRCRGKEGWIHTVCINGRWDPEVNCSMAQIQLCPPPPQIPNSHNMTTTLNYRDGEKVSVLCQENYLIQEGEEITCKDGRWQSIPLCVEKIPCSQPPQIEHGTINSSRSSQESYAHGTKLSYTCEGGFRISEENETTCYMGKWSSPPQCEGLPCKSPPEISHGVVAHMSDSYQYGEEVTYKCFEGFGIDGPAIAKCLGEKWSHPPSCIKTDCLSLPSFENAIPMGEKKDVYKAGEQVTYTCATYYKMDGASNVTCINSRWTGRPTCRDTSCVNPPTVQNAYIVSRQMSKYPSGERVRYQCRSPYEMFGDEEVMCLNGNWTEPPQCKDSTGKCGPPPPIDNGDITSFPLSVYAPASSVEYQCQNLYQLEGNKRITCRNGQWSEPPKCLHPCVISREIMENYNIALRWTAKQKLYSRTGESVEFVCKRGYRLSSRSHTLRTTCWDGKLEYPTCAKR
# Chain of NT647-FH5-7 402Y (human) (P08603 19-1231): as above
# Chain of FH402H (P08603 19-1231 Y402H): as the sequence (P08603 19-1231) above, with Y384H counted along it
# Chain of FH402Y (P08603 19-1231): as the sequence (P08603 19-1231) above
Substance,pKd [1],pKd [2],further results
FH1-4 (domain or fragment),6.00,,
FH402Y (from UniProt P08603 19-1231) (natural protein),6.60,,
FH402H (from UniProt P08603 19-1231) (natural protein),6.30,,
apoE2 (from UniProt P02649 19-317) (natural protein),,6.00,
apoE4 (from UniProt P02649 19-317) (natural protein),,5.71,
apoE3 (from UniProt P02649 19-317) (natural protein),,5.86,
native apoE4 (from UniProt P02649 19-317) (natural protein),,,pKd [3]: 6.52
native apoE2 (from UniProt P02649 19-317) (natural protein),,,pKd [3]: 8.70
